B1: DnaA domain I (residues 1-81) (domain or fragment)
chain: MENILDLWNQALAQIEKKLSKPSFETWMKSTKAHSLQGDTLTITAPNEFARDWLESRYLHLIADTIYELTGEELSIKFVIP
B2: DnaD (full length) (natural protein)
chain: MKKQQFIDMQEQGTSTIPNLLLTHYKQLGLNETELILLLKIKMHLEKGSYFPTPNQLQEGMSISVEECTNRLRMFIQKGFLFIEECEDQNGIKFEKYSLQPLWGKLYEYIQLAQNQTQERKAEGEQKSLYTIFEEEFARPLSPLECETLAIWQDQDQHDAQLIKHALKEAVLSGKLSFRYIDRILFEWKKNGLKTVEQAKIHSQKFRRVQAKQNEPQKEYKRQVPFYNWLEQ
B3: DnaA N191C, labelled with Cy3B or Atto647N (natural protein)
chain: MENILDLWNQALAQIEKKLSKPSFETWMKSTKAHSLQGDTLTITAPNEFARDWLESRYLHLIADTIYELTGEELSIKFVIPQNQDVEDFMPKPQVKKAVKEDTSDFPQNMLNPKYTFDTFVIGSGNRFAHAASLAVAEAPAKAYNPLFIYGGVGLGKTHLMHAIGHYVIDHNPSAKVVYLSSEKFTNEFICSIRDNKAVDFRNRYRNVDVLLIDDIQFLAGKEQTQEEFFHTFNTLHEESKQIVISSDRPPKEIPTLEDRLRSRFEWGLITDITPPDLETRIAILRKKAKAEGLDIPNEVMLYIANQIDSNIRELEGALIRVVAYSSLINKDINADLAAEALKDIIPSSKPKVITIKEIQRVVGQQFNIKLEDFKAKKRTKSVAFPRQIAMYLSREMTDSSLPKIGEEFGGRDHTTVIHAHEKISKLLADDEQLQQHVKEIKEQLK
B4: DnaA A198C, labelled with Cy3B or Atto647N (natural protein)
chain: B3 chain with C191N, A198C
modifications: Cy3B-maleimide or Atto647N-maleimide on the cysteine at 198
B5: DnaA(N191C/A198C) (natural protein)
chain: B3 chain with A198C
B6: truncated DnaD DDBH2 domain (residues 129-196) (domain or fragment)
chain: LYTIFEEEFARPLSPLECETLAIWQDQDQHDAQLIKHALKEAVLSGKLSFRYIDRILFEWKKNGLKTV

Data set [1] addresses T1, DnaD DDBH2 domain (residues 129-232) (Bacillus subtilis, UniProt P39787 129-232).
T1 sequence: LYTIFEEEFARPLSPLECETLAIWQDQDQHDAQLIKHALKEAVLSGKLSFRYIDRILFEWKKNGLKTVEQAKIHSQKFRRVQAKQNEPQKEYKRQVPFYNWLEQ
Put plainly: NMR titration.

For data set [2], the target named is T1, DnaD DDBH2 domain (residues 129-232). Put plainly: NMR titration. The source holds these as a separate data set.
The data set “DnaA(N191C/A198C)” concerns the target B5. Put plainly: loss and rescue of BMOE cross-linking of DnaA-DNA filaments.
The data set “FRET or BRET” deals with the molecule itself. As to the kind of experiment: FRET or BRET.
The data set “cross-linking” concerns the molecule itself. As to the kind of experiment: cross-linking.
Data set [3] has as its target B1. Put plainly: NMR titration.

Where a chain is given by its changes, count along the chain named. Names may count otherwise. Like-named read-outs stand apart in the source and are kept apart here.

Take B1: the equilibrium dissociation constant (Kd) (in general, a measure of binding affinity in units of concentration) is 665 ± 251 µM in data set [1] and 768 ± 168 µM in data set [2]. For B2, in the data set with DnaA(N191C/A198C), the binding result is “binds”. On to B3, for which the binding result in “FRET or BRET” was “binds”. For B4, the binding result in “FRET or BRET” was “binds”. On to B5, for which the binding result in “cross-linking” is on record as “binds”. Turning to B6, the binding result in data set [3] was “binds”.

(Values after paper doi:10.1101/444885 (bioRxiv, 2018).)
